B1: AP-Am-Nogo-B (alkaline phosphatase fusion protein with residues 1-200 at the amino terminus of human Nogo-B) (ligand, UniProt Q9NQC3-2 1-200, looked up)
chain: MEDLDQSPLVSSSDSPPRPQPAFKYQFVREPEDEEEEEEEEEEDEDEDLEELEVLERKPAAGLSAAPVPTAPAAGAPLMDFGNDFVPPAPRGPLPAAPPVAPERQPSWDPSPVSSTVPAPSPLSAAAVSPSKLPEDDEPPARPPPPPPASVSPQAEPVWTPPAPAPAAPPSTPAAPKRRGSSGSVVVDLLYWRDIKKTGV
notes: range 1-200; also called full-length AP-Am-Nogo-B; APNogo200; not shown: placental alkaline phosphatase coding region of vector pcAP-5
B2: AP-Nogo-A (59-172) (ligand, UniProt Q9NQC3 59-172, looked up)
chain: PAAGLSAAPVPTAPAAGAPLMDFGNDFVPPAPRGPLPAAPPVAPERQPSWDPSPVSSTVPAPSPLSAAAVSPSKLPEDDEPPARPPPPPPASVSPQAEPVWTPPAPAPAAPPST
notes: also called AP-Am-Nogo-A domains; not shown: alkaline phosphatase part of the AP fusion
B3: AP-Nogo-B (amino acids 1-180) (ligand, UniProt Q9NQC3-2 1-180, looked up)
chain: MEDLDQSPLVSSSDSPPRPQPAFKYQFVREPEDEEEEEEEEEEDEDEDLEELEVLERKPAAGLSAAPVPTAPAAGAPLMDFGNDFVPPAPRGPLPAAPPVAPERQPSWDPSPVSSTVPAPSPLSAAAVSPSKLPEDDEPPARPPPPPPASVSPQAEPVWTPPAPAPAAPPSTPAAPKRRG
notes: range 1-180; Construction not described; also called AP-Nogo-B (1-180); not shown: alkaline phosphatase part of the AP fusion
B4: mFc-ecto (Fc fusion of amino acids 52-116 of NgBR, HA- and heptahistidine-tagged) (Fc fusion)
chain: LGFTLRKPPAVGRNRRHHRHPRGGSCLAAAHHRMRWRADGRSLEKLPVHMGLVITEVEQEPSFSD
notes: Purified from conditioned media of mammalian cells; also called mFc fusion with the NgBR domain; mFc-NgBR-ectodomain; not shown: mFc, the Fc fragment of IgG; HA tag; heptahistidine tag
B5: Nogo-B receptor (NgBR), endogenous, on human umbilical vein endothelial cells (HUVEC) (receptor)
chain: SWLRVRFGTWNWIWRRCCRAASAAVLAPLGFTLRKPPAVGRNRRHHRHPRGGSCLAAAHHRMRWRADGRSLEKLPVHMGLVITEVEQEPSFSDIASLVVWCMAVGISYISVYDHQGIFKRNNSRLMDEILKQQQELLGLDCSKYSPEFANSNDKDDQVLNCHLAVKVLSPEDGKADIVRAAQDFCQLVAQKQKRPTDLDVDTLASLLSSNGCPDPDLVLKFGPVDSTLGFLPWHIRLTEIVSLPSHLNISYEDFFSALRQYAACEQRLGK
notes: The assays were done on untransfected HUVEC; also called native HUVEC; endogenous NgBR
B6: human Nogo-B receptor (NgBR), expressed from the cloned cDNA on transfected COS-7 or CHO cells (receptor)
chain: B5 chain
notes: also called Am-Nogo receptor; Am-NgR

Columns and labels:
[1] = biological target: B5; assay: AP-fusion binding to HUVEC at 4 C, AP activity read-out, Scatchard plot (FIGS. 4 and 5)
Experimental: (§1) To detect AP-Am-Nogo-B binding, cultures were washed with Hanks' balanced salt solution (HBSS) containing 20 mM HEPES, pH 7.5, and 1 mg/mL BSA (HBH). The plates were then incubated with AP-Am-Nogo-B in DMEM containing 20 mM Hepes, pH 7.5, and 1 mg/mL BSA for 2 hours at 4° C. The bound AP-Am-Nogo-B was detected by using the Blue Substrate kit (Vector Laboratories). The blue staining was examined by using the ODYSSEY Infrared Imaging System (Li-Cor, Lincoln, Nebr.) and confirmed by microscopy. Alternatively, the bound AP-Am-Nogo-B was extracted with Triton X-100, and AP activity was colorimetrically quantified by using p-nitrophenyl phosphate (Sigma) as substrate after heat inactivation of endogenous AP. Non-specific binding was determined by measuring binding in the presence of a 100-fold molar excess of recombinant Am-Nogo-B lacking the AP fusion protein. Specific binding was determined by subtracting the non-specific binding from total binding. For determination of apparent Kd, the binding of AP-Am-Nogo-B was measured in triplicate as described above and the Kd value was quantified by using the Scatchard plot program of GraphPad PRISM (one-site binding, linear regression) using the ratio of bound ligand to free ligand as the y axis and bound ligand (pM) as the x axis.

[2] = biological target: B6; assay: AP-fusion binding to CHO cells transiently transfected with NgBR cDNA, Scatchard plot (FIG. 7)
Experimental: as §1

[3] = biological target: B6; assay: surface binding of AP proteins to CHO cells expressing NgBR (FIG. 14)
[4] = biological target: B5; assay: surface binding of AP proteins to HUVEC (FIG. 15)
[5] = biological target: B6; assay: surface binding of AP proteins to CHO cells expressing NgBR (FIG. 11)
[6] = biological target: B5; assay: surface binding of AP proteins to HUVEC (FIG. 12)
[7] = biological target: B1; assay: blocking of AP-Am-Nogo-B binding to endothelial cells (FIG. 34)
[8] = biological target: T1, AP (recombinant alkaline phosphatase alone) (UniProt P05187 23-511); assay: surface binding of AP proteins to HUVEC (FIG. 12)
T1 construct: Control protein without a Nogo part; also called AP alone

[9] = biological target: T1, AP (recombinant alkaline phosphatase …); assay: AP-fusion binding to COS cells transfected with the NgBR cDNA, AP staining (FIG. 6)
Experimental: as §1, with “axis. […]” for “axis.”

T1 sequence (P05187 23-511): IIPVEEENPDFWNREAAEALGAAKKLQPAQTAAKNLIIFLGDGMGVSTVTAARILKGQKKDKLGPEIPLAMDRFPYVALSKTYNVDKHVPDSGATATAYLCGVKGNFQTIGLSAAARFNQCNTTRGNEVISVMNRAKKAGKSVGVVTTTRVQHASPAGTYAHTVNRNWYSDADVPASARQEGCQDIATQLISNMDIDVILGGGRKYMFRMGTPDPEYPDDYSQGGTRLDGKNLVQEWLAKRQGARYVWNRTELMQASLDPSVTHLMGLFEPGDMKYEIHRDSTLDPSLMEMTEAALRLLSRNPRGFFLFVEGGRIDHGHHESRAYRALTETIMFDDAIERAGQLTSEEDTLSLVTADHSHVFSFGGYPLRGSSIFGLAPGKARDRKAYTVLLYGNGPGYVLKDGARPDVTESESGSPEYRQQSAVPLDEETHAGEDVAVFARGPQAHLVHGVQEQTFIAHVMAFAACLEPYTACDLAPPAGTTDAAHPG

B1
Kd [1]: 9.7 nM
Kd [2]: 2.74 nM

B2
binding result [3]: no binding
binding result [4]: no binding

B3
binding result [5]: no binding
binding result [6]: no binding

B4
binding result [7]: binds

B5
binding result [8]: no binding

B6
binding result [9]: no binding
